PMC13168374, “Reversible DNA condensation drives natural transformation”
Residue numbers refer to the chain shown, from its start. Values belong to the molecule of their own block, whether it stands above or below them.

Experiments:
[1] = molecular target: T1, ComEA (soluble truncation) (Geobacillus stearothermophilus, UniProt A0A0K9HI54 60-207); experiment: optical tweezers overstretching; settings: EC50 of overstretch force increase; Ymax 28.6 pN; 23 C; FP: 20 mM Tris-HCl pH 7.5, 200 mM KCl, 80 nM DNA, ~20 C (spin at 20 C; read temperature not stated); optical tweezers 23 +/- 1 C, buffer not given in material
T1 sequence: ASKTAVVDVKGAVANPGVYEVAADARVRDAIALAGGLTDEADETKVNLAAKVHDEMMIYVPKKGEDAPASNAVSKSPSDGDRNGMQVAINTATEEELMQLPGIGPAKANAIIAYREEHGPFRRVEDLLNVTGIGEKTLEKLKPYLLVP

[2] = molecular target: T2, ComEA A108Y A108Y (Geobacillus stearothermophilus) (UniProt A0A0K9HI54); experiment: optical tweezers overstretching; settings: EC50 of overstretch force increase; Ymax 12.7 pN; 23 C; FP: 20 mM Tris-HCl pH 7.5, 200 mM KCl, 80 nM DNA, ~20 C (spin at 20 C; read temperature not stated); optical tweezers 23 +/- 1 C, buffer not given in material
T2 sequence: T1 sequence with A49Y

[3] = molecular target: T3, ComEA deltaL internal_change (Geobacillus stearothermophilus) (UniProt A0A0K9HI54); experiment: optical tweezers overstretching; settings: FP: 20 mM Tris-HCl pH 7.5, 200 mM KCl, 80 nM DNA, ~20 C (spin at 20 C; read temperature not stated); optical tweezers 23 +/- 1 C, buffer not given in material
T3 sequence: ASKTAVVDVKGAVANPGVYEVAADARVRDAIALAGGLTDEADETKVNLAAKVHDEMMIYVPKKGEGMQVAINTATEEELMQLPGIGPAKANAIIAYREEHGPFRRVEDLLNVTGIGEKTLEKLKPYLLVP

[4] = molecular target: ComEA LL ins19aa;after;143 (Geobacillus stearothermophilus) (UniProt A0A0K9HI54); experiment: optical tweezers overstretching; settings: FP: 20 mM Tris-HCl pH 7.5, 200 mM KCl, 80 nM DNA, ~20 C (spin at 20 C; read temperature not stated); optical tweezers 23 +/- 1 C, buffer not given in material
[5] = molecular target: ComEA from Geobacillus stearothermophilus, soluble truncation lacking the N-terminal sequence (amino acids 60-207) (Geobacillus stearothermophilus)
[6] = molecular target: ComEA from Geobacillus stearothermophilus, soluble truncation lacking the N-terminal sequence (amino acids 60-207) (Geobacillus stearothermophilus); remark: listed apart in the source
[7] = molecular target: ComEA from Geobacillus stearothermophilus, soluble truncation lacking the N-terminal sequence (amino acids 60-207) (Geobacillus stearothermophilus); remark: listed apart in the source
[8] = molecular target: T1, ComEA (soluble truncation); experiment: fluorescence polarization; Hill coefficient 1.56 +/- 0.28; FP: 20 mM Tris-HCl pH 7.5, 200 mM KCl, 80 nM DNA, ~20 C (spin at 20 C; read temperature not stated); optical tweezers 23 +/- 1 C, buffer not given in material; settings: protein: recombinant; label: 3'-fluorescein (36-FAM) on strand 1; blunt
[9] = molecular target: T4, ComEA deltaL (Geobacillus stearothermophilus, UniProt A0A0K9HI54 60-124+143-207, internal_change); experiment: fluorescence polarization; Kd within error of ComEA; Hill >1; value in Fig. 5c only; FP: 20 mM Tris-HCl pH 7.5, 200 mM KCl, 80 nM DNA, ~20 C (spin at 20 C; read temperature not stated); optical tweezers 23 +/- 1 C, buffer not given in material; settings: protein: recombinant; label: 3'-fluorescein (36-FAM) on strand 1; blunt
T4 sequence: T3 sequence

[10] = molecular target: T5, ComEA A108Y (Geobacillus stearothermophilus, UniProt A0A0K9HI54 60-207, A108Y); experiment: fluorescence polarization; Hill coefficient 0.96 +/- 0.16; FP: 20 mM Tris-HCl pH 7.5, 200 mM KCl, 80 nM DNA, ~20 C (spin at 20 C; read temperature not stated); optical tweezers 23 +/- 1 C, buffer not given in material; settings: protein: recombinant; label: 3'-fluorescein (36-FAM) on strand 1; blunt
T5 sequence: T1 sequence with A49Y

Molecule: 6 kbp dsDNA (optical tweezers)
- K half [1]: 290 nM
- K half [2]: 210 nM
- K half [3]: 380 nM
- K half [4]: 330 nM

- fold condensation of 5.495 kbp dsDNA (bounding circle radius, negative stain electron microscopy), 200 nM-4 µM ComEA, peak value [5]: 3.5 fold
- condensation force produced and held for at least 1 s during the 10 s rest phase, optical tweezers, 20 nM-4 µM ComEA (value at 200 nM; buffer alone 0.03 pN) [6]: 0.11 pN
- condensation force from an eWLC fit of the DNA released per cycle against the extension held in the rest phase, optical tweezers [7]: 0.07 pN
Molecule: ComEA from Geobacillus stearothermophilus, soluble truncation lacking the N-terminal sequence (amino acids 60-207) (domain or fragment)

B1: 30 bp DNA duplex (dsDNA)
DNA 1: GCACTGTGAATATCACTACAGCAACCTTGA
DNA 2: TCAAGGTTGCTGTAGTGATATTCACAGTGC
- Kd [8]: 0.66 ± 0.08 µM
- binding result [9]: binds
- Kd [10]: 1.91 ± 0.52 µM
